Values quoted from earlier work, collected in article PMC11962798.

Molecular target: Spike protein RBD (SARS-CoV-2) (UniProt P0DTC2)

## Bamlanivimab
  Kd: 1.5 nM
